Laboratory results reported in the DeepSol protein solubility set.

Experiment: soluble on expression in E. coli; label from the status in PepcDB or PDB records

Sequence	soluble on expression in E. coli
MKHQHQHQHQHQHQMHQTEDYCLASNKVGRCRGSFPRWYYDPTEQICKSFVYGGCLGNKNNYLREEECILACRGV	soluble
MKIAFLRPGKIGTPANHVYALLDYLREKGAEIREYDLKERDVNDVVKEIEEWKPLFLMDVNATGVIVAERDGKKHILADILGIVHVSVFFEDPLLFFPAFEGVEKPQNYIAFITELKHTDSLTALGIQNISYISPFVDLKQFPESEGEKDIEIAFVGPVVDPQIILNSVSQNYPQEIMPFFIETGEFMFRNPEVHILTAFNYVFGLFNPQMQEQFNKWREQNPSAFMRFLNDITAYTTMRRRMYLLHFLDGMDVKILGDYQGNLFENHEAIKVSSYEQLLKYYSRSNITVYVSPQTYPTGLSVIPLEILYMGSLPLIDFKGAIPGFLKPGEEIETFAPLDRADLEEKIVFYIEENREGINEIVQRGKKAVQERFTVKDRGEFVYNVLSDVKRQYEAAQKGQVN	not soluble
MKIAITITVLMLSICCSSASSDICPGFLQVLEALLLGSESNYEAALKPFNPASDLQNAGTQLKRLVDTLPQETRINIVKLTEKILTSPLCEQDLRV	soluble
MKIAVDAMGGDNAPQAIVEGVMLAKQDFPDIEFQLYGKEAEIKKYITDEKNITIIHTDEKIASDDEPVKAIRRKKTASMVLAAQAVKNGEADAIFSAGNTGALLAAGLFIVGRIKNVERPGLMSTLPVMGEPDKGFDMLDLGANADNKPEHLVQYAVLGSFYAEKVRNVQNPRVGLLNNGTEETKGSELTKKAFELLAADETINFVGNVEARELLNGVADVVVTDGFTGNAVLKSIEGTAMNMMSLLKTAILSEGVKGKMGALLLKNALHGMKDEMDYSKHGGAVLFGLKAPVIKTHGATGPDAVRYTIRQIHTMLETQVVPQLVEYYEGKAE	soluble
MKIDKYSAILGNTVGFHNMSTLTDHRPVASLPFGGKYRLIDFPLSSLANAGVRSVFGIFQQDNISSVFDHIRSGREWGLSTLLSHYYLGIYNTRVESSTVGKEYYQQLLTYLKRSGSNQTVALNCDVLINIDLNQVFHLHSTTKEPITVVYKKLAKKDISEVNAILDVDETDHVLSHKLFDSKSTAETFNMSTDIFVVDTPWLIEHLEEEAKKEHPEKLRYVLRDLAVKEGAFAYEYTGYLANIHSVKSYYQANIDMLESQKFYSLFSPNQKIYTKVKNEEPTYYANTSKVSTSQFASGSIIEGQVANSVLSRNIHVHKDSLVKDSLLFPRVVIGEGAQVEYAILDKGVEVEHGVVIRGTAEHPVVVKKGAKVTEDIHS	not soluble
MKIEAISTTIVDVPTRRPLQMSFTTVHKQSYVIVQVKAGGLVGIGEGGSVGGPTWGSESAETIKVIIDNYLAPLLVGKDASNLSQARVLMDRAVTGNLSAKAAIDIALHDLKARALNLSIADLIGGTMRTSIPIAWTLASGDTARDIDSALEMIETRRHNRFKVKLGARTPAQDLEHIRSIVKAVGDRASVRVDVNQGWDEQTASIWIPRLEEAGVELVEQPVPRANFGALRRLTEQNGVAILADESLSSLSSAFELARDHAVDAFSLKLCNMGGIANTLKVAAVAEAAGISSYGGTMLDSTVGTAAALHVYATLPSLPYGCELIGPWVLGDRLTQQDLEIKDFEVHLPLGSGLGVDLDHDKVRHYTRAA	soluble
MKIFSRLGHVLLICSSLIIAIPAHSADSSTTTKAGVKKTVKKQELSANSALVIDLKTNEIIYSNNPDAVKPIASVTKLMTAIVTLDAKLPMDAKLPITIKDAKEMKGVHSRVKIGSEISRKDMLLLTLMSSENRAAASLAHHYPGGYKAFIKAMNAKAKALGMKNTRFVEPTGLSAKNVSTARDLVVLLKASKKYPLLGKLSATDKKTVTFSKPRYTLDFRNTNRLVHNDNWKIDLTKTGFTNAAGHCLVMRTQMGRRQVAFVVLDTKGKLSPVGDANRLRTWIETGKVTPLSSEAKQYKKQRSQEQIAKISDYKS	not soluble
MKIFVLSIRPEEKAQRTGGACFDILNVPVTRLEPIPVDYTDLIRSGVDCVAFTSSYGVRLFFKNAPVKNFRYFGIGKSTCEEVRKYGYDCEYPEKMDSEGLADMIISHCSGRKVALIRSANANEIVNEKIMGHVDFIDLRNYRAVNTNVDLTPYMAKEECMGIIVTSSMEAKIAMPAIKATGKPVYSIGSVTTKTLEEAGIHPAISGNSDFVDLVEKIKKYLCLV	not soluble
MKIFVVGAHGQIGQLLVHRLLDRGDTVTGGYRDPIAQTPDPEKNFRAVELDLSWPVDRLADLYAGHDAIVFAAGSRGQDLLGVDLDGAVKTMKAAERADISRFIMLSALDAEDPDKWPDQLHDYYIVKYYADEWLIHNTDLDYVIVQPTALTNDPAQGSITLQPQRPSSIPRADVADVLVAALDSNRHRDTVKIASGNEAIVKALHVLEHHHHHH	not soluble
MKIGLIGAGVVGRAIATLAVRAGHQVMLSNSRGPHTLFSLRAAVGCAIGTVDEAAAFGDIGVVAVPLAAYRAVPAAALAGKVVIDTNNYYPERDGAIAELDDKRTTTSELLARHLPASRIVKAFNAITMTDLDRDGRPAGSPNRRALPVAGDDAKGKAIAIALLDAFGFDALDAGPLSQGWRFERGTPAYCVALTRDALEKTLAATTRLEHHHHHH	not soluble
MKIKILVDEYNTQKEQAKKVRKATSLYFRIHPSIMASKTLRVLFLGPKGTYSHQAALQQFQSTSDVEYLPAASIPQCFNQLENDTSIDYSVVPLENSTNGQVVFSYDLLRDRMIKKALSLPAPADTNRITPDIEVIAEQYVPITHCLISPIQLPNGIASLGNFEEVIIHSHPQVWGQVECYLRSMAEKFPQVTFIRLDCSSTSESVNQCIRSSTADCDNILHLAIASETAAQLHKAYIIEHSINDKLGNTTRFLVLKRRENAGDNEVEDTGLLRVNLLTFTTRQDDPGSLVDVLNILKIHSLNMCSINSRPFHLDEHDRNWRYLFFIEYYTEKNTPKNKEKFYEDISDKSKQWCLWGTFPRNERYYHK	not soluble
MKILTIDTSTSTCSAALSIDGRCAGEYLLEAERHPSERLLAAVDILLRDTGMELEELDGFGVALGPGSFTGVRIGVATVKGLALATGKPAVGFSSLAMLALNLPWSLLPVCTLFDARKKEVYGGLYRVTSAPEPVIVDRVAPPERFLEAIEGEAIFVGDGAIRYREAIESILGHRAFFAPAHCHQPRASAGALLAGELLRTGAAVPLPLLNPTYIRPSEAELARMCQKAVAAALEHHHHHH	not soluble
MKILVFGGTRFFGKKLVERLVSEGHDVTIGTRGKTEDNFGDTVKRVVLNRESRDALFQLAKEDWDVIYDNICFSPKEALYAVDAFKGKVKRYIYTSSLSVYSQKGRALVEADFNPEHYEIVIGDKEDFDYGEGKRLAEAVFFQKASFPVVAVRFPIVLGLDDYTKRLHFHINHIKNHQEIGISNGQAEIGFITSDEAAHFLEWVGVESDLTGPVNATSNGTYALNGFIKMLEEKIGELALVEEVTDDVDDSPFGIEKTYYLDNAKATEAGFVFNDLKVWLPALVTDILKENLEHHHHHH	not soluble
MKILVTGTEGYLGSLLPSLLIAKGHEVSGLDTGFYKVGWLYNGTNITAKTLNKDIRNIIPEDLEGVDAIVHMAELSNDPAGQLAPHITYEINHLGSVHLANLAKRMGVRRFLYMSSCSVYGVASEGDVTEESPVNPQTAYAECKTLVERDIKPLADDDFSPTFMRNATAFGASPRMRFDIVLNNLSGLAWTTKEIKMTSDGTPWRPLVHALDICQAIICALEAPRDIVHNQVFNVGDTANNYRVKEIAEIIADTFPSCKLTFGNNGSDNRSYRVSFEKINTVLPGFKCEWNAQTGAKQLFDLFSQIDMTEDTFLFRGFTRLKQLEYLIRTQQIDQNFFWAKCDNVVV	not soluble
MKIQLDINGTEIQKGVWVGSGAIIEPGAILNPPCVIGDNCRIESGAVIDSLSVIGNNNVIERDSSVKRSVIWDGNYIEYGSKIRGAILCSKTNLKRYVHIFENAIVGDNCLINERVVIKPNIKIWPQKTVEPFAIVDRNIIWGSKLEHHHHHH	not soluble
MKISPSLMCMDLLKFKEQIEFIDSHADYFHIDIMDGHFVPNLTLSPFFVSQVKKLATKPLDCHLMVTRPQDYIAQLARAGADFITLHPETINGQAFRLIDEIRRHDMKVGLILNPETPVEAMKYYIHKADKITVMTVDPGFAGQPFIPEMLDKLAELKAWREREGLEYEIEVDGSCNQATYEKLMAAGADVFIVGTSGLFNHAENIDEAWRIMTAQILAAKSEVQPHAKTA	soluble
MKITVPATSANIGPGFDSVGVAVSKYLTIEVLEPADVWFIEHDLGDIPSDENNLLISTALQVKSDLQPHKLVMASDIPLAR	not soluble
MKIVAFNGSPRKGGNTELLIKEVFKPIQEAGIETELVQLGGKLLRGCASCYTCFKTKDGKCAIKTDPMNEFIQKAQEADGIILASPTYYGSVSAEMKAFMDRLGLTTIGQGRTLTRKVGAAVISVRRGGAVTVYDELNRFMLGSGMIVPGSTYWNFGIGEMPGEVFDDAEGLRNMKDLGVQLAWLLKAIHNLEHHHHHH	soluble
MKIVDANVLLYAVNTTSEHHKPSLRWLDGALSGADRVGFAWVPLLAFVRLATKVGLFPRPLPREAAITQVADWLAAPSAVLVNPTVRHADILARMLTYVGTGANLVNDAHLAALAVEHRASIVSYDSDFGRFEGVRWDQPPALL	soluble
MKIVIIGSGLAGLSAGYRLCKSDEVIIFEKDPDIGGMSASYSIENEGKKYFIEKYYHHIFRSDSELLALIKELGLEKQMLWLKGKNAYFVDGKNYPMNTPVEILHFSPLSILDLAKLGMLVLRIKLIKDTAPYDRIKAKEWILDTAGKSVYENFFAPLMKSKFGDNAENVSAAWVIGRVKIRSDRGAEGEKLGYMRGGFNSLIEALAGEITANGGEIRTDREVTEIVIKANAVQGVKVNGDFIPCDAVISTAEPAVLDAITGGKLGDLHETLKSIRYQGTACALIGLDRSLMEDGNYWLNIKA	not soluble
MKIVVIGATGIIGKAIVAELNPRHEIISASYKNSDIQVDITSKQSIDAMYKKLNTIDAIVLATGKVHFAALKDMGEDDYKIGLTNKLMGQVNVVLAGLEYINDNGSFTLTSGILNRDPILYGSSAAMVNGALDGFIKSAALEMPRGIRINGVSPTVITEAMENYGPYFRGYEPVSAARAALAYSKSIEGAQTGQVYCVGLEHHHHHH	not soluble
MKIYYEGYGCTLNQGETGLYVNKLLSEGSVLVSRPDEADISIIGTCAVIQKTEDHMLKRIEELSRLGRVKVIGCLSAIKGSEISGGNIEAIDRNEFQQFQEYLEDTSIIDAEIMSGIPINQGCTGKCNFCISHIARGKLVSRRPEKIVNQIRMMVAAGKREIRISSLDTAAYGKDTGYRLPSLIKDITAVDGDFMLRVGMMEPRNTIEILDDLLEAYDDPKVFKFLHIPVQSGDDRVLTAMNREYTVDEFMQIIESFRKRFPDMTISTDVIIGYHAENDRSFDLTCDLIRKVQPEIINVTRFSPRELTPDFEHRPRPTNVLKDQDRTMAEIHRKIVSERFSALVGKVERILITEDGKPGTMVGRDASYRPVVIRAPAEKYTWHSARIIGYENTSLIGELVDLEHHHHHH	soluble
